The target in test [1] is CHIP-TPR domain (HsCHIP 21-154) (human) (UniProt Q9UNE7). The experiment in a line: NMR titration.
Test [2] deals with T1, CHIP-TPR domain (HsCHIP 21-154) (human, UniProt Q9UNE7 21-154).
T1 sequence (looked up): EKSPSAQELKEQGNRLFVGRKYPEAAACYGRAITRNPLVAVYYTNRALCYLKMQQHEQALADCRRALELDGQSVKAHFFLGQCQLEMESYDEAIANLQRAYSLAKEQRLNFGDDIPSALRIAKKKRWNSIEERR
Description: crystal structure.

Where only a bound is given, the exact number is not on record here.

For “Hsc70-lid-tail-ΔGPTIEEVD (domain or fragment)”, the Kd (commonly a measure of binding affinity in units of concentration) in test [1] was over 100 µM.

B1: HsHsc70_(541-646)Δ_(626-638) (domain or fragment, human, UniProt P11142 541-646, looked up)
chain: SLESYAFNMKATVEDEKLQGKINDEDKQKILDKCNEIINWLDKNQTAEKEEFEHQQKELEKVCNPIITKLYQSAGGMPGGMPGGFGPTIEEVD
As to B1, the binding result in test [2] was “binds”.

(Values after article PMC4351142 (Structure (London, England : 1993), 2015).)
